Target: mouse BRCA1 protein (mouse) (UniProt P48754)
Assay: cell-based or functional assay

Chain of UniProt P48754 (P48754 whole entry): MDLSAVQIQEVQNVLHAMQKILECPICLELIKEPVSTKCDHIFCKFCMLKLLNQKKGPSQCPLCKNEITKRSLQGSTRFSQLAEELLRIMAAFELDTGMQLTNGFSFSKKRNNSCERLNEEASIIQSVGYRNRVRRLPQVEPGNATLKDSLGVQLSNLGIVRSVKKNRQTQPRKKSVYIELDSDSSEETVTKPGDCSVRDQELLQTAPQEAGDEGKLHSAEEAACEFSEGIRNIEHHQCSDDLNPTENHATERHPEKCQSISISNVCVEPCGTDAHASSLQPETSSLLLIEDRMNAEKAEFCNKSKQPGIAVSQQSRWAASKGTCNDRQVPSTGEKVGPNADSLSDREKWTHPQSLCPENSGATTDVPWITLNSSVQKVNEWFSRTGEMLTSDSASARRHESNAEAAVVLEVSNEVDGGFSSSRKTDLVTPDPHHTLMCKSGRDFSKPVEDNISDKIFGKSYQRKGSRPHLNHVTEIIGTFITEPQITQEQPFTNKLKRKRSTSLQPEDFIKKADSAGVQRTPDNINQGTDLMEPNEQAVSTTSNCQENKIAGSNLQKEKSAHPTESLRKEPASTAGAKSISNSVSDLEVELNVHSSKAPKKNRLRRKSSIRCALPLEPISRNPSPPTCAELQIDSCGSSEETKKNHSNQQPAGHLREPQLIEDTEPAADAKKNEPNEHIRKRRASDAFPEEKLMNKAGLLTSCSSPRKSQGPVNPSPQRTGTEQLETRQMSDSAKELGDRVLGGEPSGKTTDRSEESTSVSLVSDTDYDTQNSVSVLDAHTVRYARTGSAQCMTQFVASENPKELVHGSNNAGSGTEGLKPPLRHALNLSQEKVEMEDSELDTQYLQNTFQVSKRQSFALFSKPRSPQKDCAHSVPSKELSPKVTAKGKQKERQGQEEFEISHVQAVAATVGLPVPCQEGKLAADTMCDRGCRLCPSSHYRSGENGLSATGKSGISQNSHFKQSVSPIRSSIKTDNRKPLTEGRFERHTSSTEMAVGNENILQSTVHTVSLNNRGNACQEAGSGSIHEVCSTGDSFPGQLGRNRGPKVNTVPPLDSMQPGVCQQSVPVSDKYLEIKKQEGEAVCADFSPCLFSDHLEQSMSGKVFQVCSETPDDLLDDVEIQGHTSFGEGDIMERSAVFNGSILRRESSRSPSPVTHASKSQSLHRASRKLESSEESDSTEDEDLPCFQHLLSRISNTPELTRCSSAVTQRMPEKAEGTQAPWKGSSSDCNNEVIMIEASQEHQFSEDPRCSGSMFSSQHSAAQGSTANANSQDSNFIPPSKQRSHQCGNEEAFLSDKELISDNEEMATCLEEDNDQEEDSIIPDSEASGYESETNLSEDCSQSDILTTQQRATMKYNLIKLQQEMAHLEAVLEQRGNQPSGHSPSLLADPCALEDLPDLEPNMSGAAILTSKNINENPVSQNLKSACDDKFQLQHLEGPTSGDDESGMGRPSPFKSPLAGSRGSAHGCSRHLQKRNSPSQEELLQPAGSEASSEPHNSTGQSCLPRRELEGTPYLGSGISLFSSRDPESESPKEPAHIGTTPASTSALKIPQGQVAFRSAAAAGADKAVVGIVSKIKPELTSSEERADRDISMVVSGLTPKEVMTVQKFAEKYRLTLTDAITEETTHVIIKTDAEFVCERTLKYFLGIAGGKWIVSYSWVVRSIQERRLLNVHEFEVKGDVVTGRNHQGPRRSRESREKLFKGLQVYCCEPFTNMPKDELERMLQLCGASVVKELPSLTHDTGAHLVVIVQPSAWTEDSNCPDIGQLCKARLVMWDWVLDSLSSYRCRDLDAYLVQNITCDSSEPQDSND

## mouse FANCD2 protein (from UniProt Q80V62 1-1450)
  anti-FANCD2 foci co-localized with regions of intense anti-BRCA1 staining (20 pachytene nuclei of mouse spermatocytes): 65%

Reference: patent EP1451343B1
